Measurements published in the Immune Epitope Database (IEDB).

How the values were obtained:
[1] = target: HLA-A*24:02; experiment: IEDB peptide-MHC binding, purified MHC/competitive/fluorescence; ≥ and ≤ were set here for values at or beyond the usual limits of such assays
[2] = target: HLA-A*11:01; experiment: as above
[3] = target: HLA-A*03:01; experiment: as above
[4] = target: HLA-B*39:01; experiment: IEDB peptide-MHC binding, purified MHC/direct/fluorescence; filed as Kd, often an IC50 or EC50 that approximates it; ≥ and ≤ were set here for values at or beyond the usual limits of such assays
[5] = target: HLA-B*07:02; experiment: as above
[6] = target: HLA-B*46:01; experiment: as above
[7] = target: HLA-A*69:01; experiment: as above
[8] = target: HLA-B*40:01; experiment: as above
[9] = target: HLA-B*44:02; experiment: as above
[10] = target: HLA-A*31:01; experiment: as above
[11] = target: HLA-A*29:02; experiment: as above
[12] = target: HLA-B*15:01; experiment: as above
[13] = target: HLA-B*27:05; experiment: as above
[14] = target: HLA-B*57:01; experiment: as above
[15] = target: HLA-A*01:01; experiment: as above
[16] = target: HLA-A*11:01; experiment: as above
[17] = target: HLA-B*58:01; experiment: as above
[18] = target: HLA-A*03:01; experiment: as above
[19] = target: HLA-A*24:03; experiment: as above
[20] = target: HLA-A*02:03; experiment: as above
[21] = target: HLA-A*02:19; experiment: as above
[22] = target: HLA-A*02:11; experiment: as above
[23] = target: HLA-A*02:16; experiment: as above
[24] = target: HLA-A*02:12; experiment: as above
[25] = target: HLA-B*46:01; experiment: IEDB peptide-MHC binding, purified MHC/competitive/fluorescence; filed as Kd, often an IC50 or EC50 that approximates it; ≥ and ≤ were set here for values at or beyond the usual limits of such assays
[26] = target: HLA-A*69:01; experiment: as above
[27] = target: HLA-B*15:01; experiment: as above
[28] = target: HLA-A*26:01; experiment: as above
[29] = target: HLA-B*51:01; experiment: as above
[30] = target: HLA-B*57:01; experiment: as above
[31] = target: HLA-B*15:17; experiment: as above
[32] = target: HLA-B*27:03; experiment: as above
[33] = target: HLA-B*08:01; experiment: as above; conditions: source organism: Escherichia coli
[34] = target: HLA-A*02:01; experiment: IEDB peptide-MHC binding, purified MHC/competitive/fluorescence; ≥ and ≤ were set here for values at or beyond the usual limits of such assays
[35] = target: HLA-A*29:02; experiment: IEDB peptide-MHC binding, purified MHC/competitive/fluorescence; filed as Kd, often an IC50 or EC50 that approximates it; ≥ and ≤ were set here for values at or beyond the usual limits of such assays; conditions: source organism: Streptococcus pneumoniae D39
[36] = target: HLA-A*01:01; experiment: as above
[37] = target: HLA-A*68:02; experiment: IEDB peptide-MHC binding, purified MHC/direct/fluorescence; filed as Kd, often an IC50 or EC50 that approximates it; ≥ and ≤ were set here for values at or beyond the usual limits of such assays; conditions: source organism: Orthohantavirus sangassouense
[38] = target: HLA-B*39:01; experiment: IEDB peptide-MHC binding, purified MHC/competitive/fluorescence; filed as Kd, often an IC50 or EC50 that approximates it; ≥ and ≤ were set here for values at or beyond the usual limits of such assays; conditions: source organism: Kurkino virus
[39] = target: HLA-B*18:01; experiment: as above; conditions: source organism: Kurkino virus
[40] = target: HLA-A*02:01; experiment: as above; conditions: source organism: Kurkino virus
[41] = target: HLA-B*08:01; experiment: IEDB peptide-MHC binding, purified MHC/direct/fluorescence; filed as Kd, often an IC50 or EC50 that approximates it; ≥ and ≤ were set here for values at or beyond the usual limits of such assays; conditions: source organism: Yersinia pestis
[42] = target: HLA-A*02:01; experiment: as above; conditions: source organism: Yersinia pestis
[43] = target: HLA-A*26:01; experiment: as above; conditions: source organism: Yersinia pestis Nepal516
[44] = source organism: Vaccinia virus Copenhagen
[45] = source organism: Mycobacterium tuberculosis
[46] = source organism: Zaire ebolavirus
[47] = source organism: Orthohantavirus andesense
[48] = source organism: Vaccinia virus WR
[49] = source organism: Mycobacterium tuberculosis variant bovis
[50] = source organism: Sudan ebolavirus
[51] = source organism: Orthohantavirus sangassouense
[52] = source organism: Yersinia pestis
[53] = source organism: Yersinia pestis Nepal516

Sequence: VYGNIKHKE
- IC50 [1, 44]: 34.9 µM
- IC50 [2, 44]: 69.1 µM
- IC50 [3, 44]: ≥ 158 µM

Sequence: FHSRFVQAL
- Kd [4, 45]: 0.0399 µM
- Kd [5, 45]: ≥ 20 µM
- Kd [6, 45]: ≥ 20 µM
- Kd [7, 45]: ≥ 20 µM
- Kd [8, 45]: ≥ 20 µM
- Kd [9, 45]: ≥ 20 µM
- Kd [10, 45]: ≥ 20 µM
- Kd [11, 45]: ≥ 20 µM
- Kd [12, 45]: ≥ 20 µM
- Kd [13, 45]: ≥ 20 µM
- Kd [14, 45]: ≥ 20 µM
- Kd [15, 45]: ≥ 20 µM
- Kd [16, 45]: ≥ 20 µM
- Kd [17, 45]: ≥ 20 µM
- Kd [18, 45]: ≥ 20 µM

Sequence: TSPQSLTTK
- IC50 [2, 46]: 1.76 µM
- IC50 [3, 46]: 22.3 µM

Sequence: IQNALEKAL
- Kd [19, 47]: ≥ 20 µM
- Kd [11, 47]: ≥ 20 µM
- Kd [20, 47]: ≥ 20 µM
- Kd [21, 47]: ≥ 20 µM
- Kd [22, 47]: ≥ 20 µM
- Kd [23, 47]: ≥ 20 µM
- Kd [24, 47]: ≥ 20 µM
- Kd [18, 47]: ≥ 20 µM
- Kd [25, 47]: ≥ 20 µM
- Kd [26, 47]: ≥ 20 µM
- Kd [27, 47]: 0.197 µM
- Kd [28, 47]: ≥ 20 µM
- Kd [29, 47]: ≥ 20 µM
- Kd [30, 47]: ≥ 20 µM
- Kd [31, 47]: ≥ 20 µM
- Kd [32, 47]: ≥ 20 µM

Sequence: ETLGYCMIR
- IC50 [2, 48]: 25.2 µM
- IC50 [3, 48]: ≥ 248 µM

Sequence: HQAIISDVL
- Kd [4, 49]: 0.0424 µM
- Kd [5, 49]: ≥ 20 µM
- Kd [6, 49]: ≥ 20 µM
- Kd [7, 49]: ≥ 20 µM
- Kd [9, 49]: ≥ 20 µM
- Kd [10, 49]: ≥ 20 µM
- Kd [11, 49]: ≥ 20 µM
- Kd [13, 49]: ≥ 20 µM
- Kd [14, 49]: ≥ 20 µM
- Kd [15, 49]: ≥ 20 µM
- Kd [17, 49]: ≥ 20 µM
- Kd [18, 49]: ≥ 20 µM

Sequence: ENALRGVAV
- Kd [33]: 0.377 µM

Sequence: LRRWGGTCR
- IC50 [34, 50]: ≥ 645 µM
- IC50 [3, 50]: ≥ 200 µM

Sequence: GVNFNLYYY
- Kd [35]: ≤ 0.0001 µM
- Kd ([36]; source organism: Streptococcus pneumoniae D39): 0.021 µM

Sequence: QAFYTRVLK
- IC50 [2, 48]: 0.311 µM
- IC50 [3, 48]: 1.47 µM

Sequence: SPGDNSAKF
- Kd [37]: ≥ 20 µM
- Kd ([5]; source organism: Tanganya virus): 1.96 µM
- Kd [19, 51]: ≥ 20 µM
- Kd [11, 51]: ≥ 20 µM
- Kd [20, 51]: ≥ 20 µM
- Kd [21, 51]: ≥ 20 µM
- Kd [22, 51]: ≥ 20 µM
- Kd [23, 51]: ≥ 20 µM
- Kd [24, 51]: ≥ 20 µM
- Kd [18, 51]: ≥ 20 µM
- Kd [38]: ≥ 20 µM
- Kd [39]: ≥ 20 µM
- Kd ([25]; source organism: Kurkino virus): ≥ 20 µM
- Kd ([26]; source organism: Kurkino virus): ≥ 20 µM
- Kd [40]: ≥ 20 µM
- Kd ([27]; source organism: Kurkino virus): ≥ 20 µM
- Kd ([28]; source organism: Kurkino virus): ≥ 20 µM
- Kd ([29]; source organism: Kurkino virus): ≥ 20 µM
- Kd ([30]; source organism: Kurkino virus): ≥ 20 µM
- Kd ([31]; source organism: Kurkino virus): ≥ 20 µM
- Kd ([32]; source organism: Kurkino virus): ≥ 20 µM

Sequence: SNENGGPPL
- Kd ([4]; source organism: Influenza A virus (A/Cameron/1946(H1N1))): ≥ 20 µM

Sequence: FLQMENLMY
- Kd ([36]; source organism: Bacillus anthracis str. A0488): 0.0021 µM

Sequence: VSSGKNIKR
- IC50 [1, 46]: ≥ 163 µM
- IC50 [34, 46]: ≥ 140 µM
- IC50 [2, 46]: 4.31 µM
- IC50 [3, 46]: ≥ 82.2 µM

Sequence: VLFGLGFAI
- IC50 ([3]; source organism: Mus musculus): 12.6 µM

Sequence: QQSEARRML
- Kd ([4]; source organism: Yersinia pestis CA88-4125): 2.09 µM
- Kd [41]: 6.41 µM
- Kd [5, 52]: 0.397 µM
- Kd [7, 53]: ≥ 20 µM
- Kd [8, 53]: ≥ 20 µM
- Kd [42]: 0.703 µM
- Kd [9, 53]: ≥ 20 µM
- Kd [10, 53]: ≥ 20 µM
- Kd [12, 52]: 0.109 µM
- Kd [43]: ≥ 20 µM
- Kd [13, 53]: ≥ 20 µM
- Kd [15, 53]: ≥ 20 µM
- Kd [16, 53]: ≥ 20 µM
- Kd [17, 53]: ≥ 20 µM
- Kd [18, 53]: ≥ 20 µM
